1 protein from article PMC2148169 (The Journal of Cell Biology, 1998) can be followed below.

This data set deals with the molecule itself. The data set is described as follows: SEC. (In general: In gel filtration, larger molecules generally elute earlier.)

B1: recombinant GST-Vps5p expressed in bacteria (natural protein)
chain: LEAPVWDELNHEGDKTQSLVSNSIESIGQISTNEERKDNELLETTASFADKIDLDSAPEWKDPGLSVAGNPQLEEHDNSKADDLINSLAPEQDPIADLKNSTTQFIATRESGGALFTGNANSPLVFDDTIYDANTSPNTSKSISGRRSGKPRILFDSARAQRNSKRNHSLKAKRTTASDDTIKTPFTDPLKKAEKENEFVEEPLDDRNERRENNEGKFTASVEKNILEQVDRPLYNLPQTGANISSPAEVEENSEKFGKTKIGSKVPPTEKAVAFKVEVKDPVKVGELTSIHVEYTVISESSLLELKYAQVSRRYRDFRWLYRQLQNNHWGKVIPPPPEKQSVGSFKENFIENRRFQMESMLKKICQDPVLQKDKDFLLFLTSDDFSSESKKRAFLTGSGAINDSNDLSEVRISEIQLLGAEDAAEVLKNGGIDAESHKGFMSISFSSLPKYNEADEFFIEKKQKIDELEDNLKKLSKSLEMVDTSRNTLAASTEEFSSMVETLASLNVSEPNSELLNNFADVHKSIKSSLERSSLQETLTMGVMLDDYIRSLASVKAIFNQRSKLGYFLVVIENDMNKKHSQLGKLGQNIHSEKFREMRKEFQTLERRYNLTKKQWQAVGDKIKDEFQGFSTDKIREFRNGMEISLEAAIESQKECIELWETFYQTNL
As to B1, the binding result is “binds”.
